Test results as given in publication PMC12846365.

Columns and labels:
[1] = biological target: 48d.cl IC, 3 plasmid version (Fab-Fab-crosslinked, K126C) (HIV-1 strain BG505); assay: native gel or EMSA
[2] = biological target: 48d.cl IC, fusion version (gpCore + 48d heavy chain fusion, Fab-Fab-crosslinked K126C) (HIV-1 strain BG505); assay: native gel or EMSA

Substance: wtA32 (antibody)
- stoichiometry N [1]: 2
- stoichiometry N [2]: 2

Substance: wtVRC01 (antibody)
- stoichiometry N [1]: 1
- stoichiometry N [2]: 1
